# Assay results published in the DeepSol protein solubility set.
# Test: soluble on expression in E. coli; label from the status in PepcDB or PDB records
row,Sequence,soluble on expression in E. coli
1,MGSDKIHHHHHHMYVLAIDQSTSGTKAIIFDEKGGIVHRVTVYHKQYYPKPGWVEHDPEEIFRNTLDACRKVIEESGIKPLEIEALAITNQRETTILWEKKSGKPVYNAVVWQCQRGASLCEEIKKRGLEGKIKEKTGLVVDPYFSASKIRWILDNVEGVKNKAKQGEIAFGTVDSWLIWKLTKGEVHATDFSNASRTLLLNIHELRWDEEVLEIFEIPPEILPELKSSDSVFGYTDLGFLPKKIPIVGVMGDSSAALFGQGGFYSGDIKVTYGTGSSTMLNIGEKPNVSDSPIVCSVGWVVKETSSYVLEGNIHSAGDTIVWLKEKLGIISDPSETEKIALSLENNGGVYLVPAFVGLGAPYWRSDVKAAILGLQRNHGKEHVVRAALESIAYQVRDIFEEMVRISSKEPTEVRADGGITRNRFLMQFQADILNIPVLVSNIEEVSARGVAFVALLHLGAFSDLEEIRQKITYREKYEPRMGDELREMYYEGWKTAIRKLLTE,not soluble
2,MLKLYLPCCRNNSTFAIRFSYASIAVDLILKIRQYMKRLHWILLLMILLIPTESISAKKKTEKSDREIWCDVMYRMAAPVLSNMSEGLLKQNMLVELSPTWDGRNQNVTYMECFGRLMAGLAPWLSLPDDETPEGLQRKQLREWALKSYANAVDPASPDYLLWRQENQTLVDAAFLAESFLRSYDALWMPLDSITKQRYIAEFTDLRRVDPSYSNWLLFSATVESFLRKAGAPSDTYRISSSLRKIEEWYVGDGWYSDGPRFAFDYYNSFVIHPMYIEALEIITEAGKREKIGNMPGCNFHEAIRRAQRFGVILERLISPEGTLPVFGRSITYRTGSLQTLALLAWRNWLPEELSNGQVRAAMTAVIQRMFGDGRNFNTAGFLTLGFNGSQPGISDYYTNNGSLYMASLAFLPLGLSADDPFWTDASQSWTSKKAWEGEEFPKDHSYHKELEHHHHHH,not soluble
3,MKKLEIEFEQVVKQYKNTIYTVCFMFSKDSREVNDLFQDVLVNLWKGFDTFKGESNIGTWIWRVSLNTCISSDRKKKIVSVPLIMGIDLFEDRDEDTTQIKMLYNRISRLKHFDRAIVLLWLENFSYEEIAAIVGISVKNVSVRLFRIKEELKKMSNN,not soluble
4,MSSSNWEKLKKKLDSAKSGRVEKKHSNEKKYLKSVKGKNNENENSYIVDKKRMNELKKFAKENDIPESQVLDAYGVDASKLTRKTNLETLGKYIAMDCEMVGVADDMSVLARVSIVNYHGHVVYDTYVRPKEKVTDWRTWVSGVKSFHMRDAPSFEKVQAEVAKILDNRVLVGHAVHNDLKVLLLSHPRRMIRDTSRFSGYRKLAKGRTPGLKKLAEVILGRDIQSGQHSSVQDAQATMELYKKVKKEMDEVAFKGLSKS,soluble
5,MSLKQADELRFNEDGLIPAIVQDAASKEVLTLAYMNKESYEKTLETKETWFYSRSRQALWHKGETSGNTQAVKGIRYDCDQDALLVLVEPSGPACHTGSYSCFTKEQTEEQAADRFGIMNELERVIAERQAEMPEGAYTTYLFREGVDKILKKVGEEASEVIIAAKNRDHEELKWEAADLLYHLLVLLREQSLPLDDVLDVLKKRHSEIEEEGHHHHHH,soluble
6,MGSDKIHHHHHHMKRKITPELSSKDWKEFCSRFHFDNDKLPLIRAIYTAMLPLVDAFAYYSIKQDLPGVSLAHYAYGLVTLGNGVDELSELYLNHEQLEEAYIADCLSLMLLSNAYEQFAKAVEEESSLYAIELSFLGDEYPLELLPEIFEHVSPDGIHLTGSNMLKPLKTAALIIKLDSQKRKNIKELCNTCANCKNLSCPSRKAPGPKLPHTYGAMQIFNIRH,not soluble
7,MGSDKIHHHHHHMFVLKNVKYKDILNIEELHIPARKITVITGKSGTGKTTLLKMLNKLISPDSGEIFFKGTPLTEIDSVELRRKVVMLPQFPVVFPGNVKENLLMGLKFSGKKIPHDEELRKILKFVMLEKDLNDDPEKFSGGEKQRLALARVLLMDPEVLLLDEPTSSLDEKTGIEIIKKVSNFAKSRGKTLVMVTHNPELRKFADVLIELKNGRVL,not soluble
8,MSLRSLTHIAKIELPPVRRVTYVKHYSIQPANLEFNAEGTPVSRDFDDVYFSNDNGLEETRYVFLGGNQLEARFPEHPHPLFVVAESGFGTGLNFLTLWQAFDQFREAHPQAQLQRLHFISFEKFPLTRADLALAHQHWPELAPWAEQLQAQWPMPLPGCHRLLLDEGRVTLDLWFGDINELISQLDDSLNQKVDAWFLDGFAPAKNPDMWTQNLFNAMARLARPGGTLATFTSAGFVRRGLQEAGFTMQKRKGFGRKREMLCGVMEQTLPLPCSTPWFNRTGSSKREVAIIGGGIASALLSLALLRRGWQVTLYCADEAPALGASGNRQGALYPLLSKHDEALNRFFSNGFTFARRLYDSLPVKFDHDWCGVTQLGWDEKSQHKIAQMLSMDLPEELAVAVEANAVEQITGVTTNCSGITYPQGGWLCPAELTRNVLELAQQQGLQIYYQYQLQDLSRKDDCWLLTFAGDQQATHSVVVLANGHQISRFSQTSSLPVYSVAGQVSHIPTTPELAKLKQVLCYDGYLTPQNPANQHHCIGASYHRGSEETAYSEDNQQQNRQRLIDCFPHAQWAKTVDVSKKEARCGVRCATRDHLPMVGNVPDYEATLVEYASLAEQKDKAVSAPVFDDLFMFAALGSRGLCSAPLCAEILAAQMSDEPIPMDASTLAALNPNRLWVRKLLKGKAVKAGEGHHHHHH,soluble
9,MSNAFEYLRTYVESTTETDAAVARAREDAAEFGLPAPDEMTGQLLTTLAATTNGNGSTGAIAITPAAGLVGLYILNGLADNTTLTCIDPESEHQRQAKALFREAGYSPSRVRFLLSRPLDVMSRLANDSYQLVFGQVSPMDLKALVDAAWPLLRRGGALVLADALLDGTIADQTRKDRDTQAARDADEYIRSIEGAHVARLPLGAGLTVVTKALEHHHHHH,soluble
10,MANFQATIHSRPLSPEFMTQARRPASTIQAVLTNLREKISLQSILPGARLTEEELVDNYSIPRAMAREVLAVLEDRGIVRRIPNKGAVVAHVDMQWVYHYYDAREALDGMMVRLAARQTRPEDWADLVEQFGEPFQKALETGDVDRLISLIETFRNRLQTAANNPVLSDLAERIHERIRVVRQRVVLLPGRAETMVADYRAVLAALARSDAEEAEQLMGILNRNNRAAIQKYERYVV,not soluble
11,MRKVRVGIWGFGAMGIGMANMILKKEGIEIVSVCSRSTSGKSMYDVLGIERGERPEVIINKNYEEVFREKSVDVVLLATDSFTKKAFDKIIFLLNRKINVISTAEQMAYPQADDADLAKKMDEVAKENGVSILGTGINPGFVLDLLVLALSGTCEEVTSIKAKRVNDLSPFGKSVMVEQGVGVTREEFIKGVEDKTIAGHVGFVESINMIADGLGWKLDKIEQTKEPIMTTVDRKSKYGEALAGNVAGCRQCGYGYVNGEVLIEMEHPQQIIPEAEGIKTGDYVSIKGIPNIDLQINPEIPGGVGTYAMIVNSIPLIINARPGLKTMLDIPVPRAIMGDIRNQIEVELEEESKAN,not soluble
12,MGSDKIHHHHHHMKTFLVCALEPSANLHLKEVLKAYKKDFGEFELHGIYDESLCKEFDLNSKPLYSSHEFSAMGFIEVLPLIFKAKKAIKELANLSFTQKINGILCIDSPAFNIPFAKALKKAGSKIPRIYYILPQVWAWKKGRIPIIESHFDILASILPFDNQFFNKSTYIGHPLLDEIKEFKNQEDINHTFSKKDDEKTIAFLPGSRRSEIRRLMPIFKELSQKFKGKKILCVPSFNLEKLEVYGDISEFKIESNTPKVLKKADFAFICSGTATLEAALVGTPFVLAYKAKAIDIFIAKLFVKLKHIGLANIFCDFAGKEALNPEFLQDKVNVLNLYEAYNKYDYKAFFAKVDFLKEYLQFGSAKNLAKILNEI,not soluble
13,MALEKLLKVQERLWAPEDLRKKANLQDYAAEYRKSLEDPEGFWGAWARRFHWEKPFEKVLEWTLPEHRWFLGGTTNAVYNALERNVERGLRNKVALLYLAEDGREEKLTYGELLDRVRRLATGLRRLGVGKGDRVVIYMPLTLEGVLAMLATAYIGAIHSVVYAGLGVSALRERILDAQAKLLIAGDVSFRRGKGVDLRSIAEEAIRDLPLKVVWFQRAYKAELAEGHYDFHELLWGNPPEARAEMVDAEHPLFILYTSGSTGKPKGVVHVHGGYMVGTTYHLRTFFDVKDEDVFWATSDIGWIVGHSYIVYAPLLEGITSVLREGAPDHPDPGALWQAVERYRVNVMFTAPTAVRMFMKYGPEWPRKYDLSSLRLLAVAGEPLNPEALKWAYEHLVDGGRRGFVADNWWQTELGGPTLGTPLVLPAKPGFAGVALPGVEAEVVDEEGRPVPPGQGGLLVLKRPFPHMMRTVWGNHERYLRYWQEVPGGVYASGDVASKDEEGYFSVLGRADDVLNVAGHRIGTADVESALVSHPAVAEAAVIGVPDPLKGEAIKAFVVLRLGQTPSEELKEALVQHVRRELGPIATPSEVVFLDKLPKTRSGKILRRLLKAQALGKDPGDLSTLEE,soluble
14,MSDQEDKEVPDVEVDYSKYDEDSVPIPEKDIEESHPGRPDLDYDETPVGPAPTECTEEKND,not soluble
15,MNSPFAAETLLFERSRPRPEALRVIYGFPNTYSVGITSLGYQLVWAQLASRADVAVSRLFTDVQEPLPRDPELVGFSFSWELDYGNLLVLLEQLGIPIWQRDRHDCHPLVFGGGPVLTANPEPFADFFDVILLGDAEPLLDPFLTTMAQVRTAARSQRLEALAHVPGIYVPSLYHVSYSHPTGPIQRIEPIKASVPPTVTKQVHRGHTLAASTVVTPLAAWENIYMVEVVRSCPELCRFCLASYLTLPFRTPSLETLIPAIERGLAVTDRLGLLGASITQHPEFPALIEHLGQPQFDHVRVSLASVRTNTVTESLAQLLSQRGSQSLTIAIETGSERLRQVINKKLETEEILAAASHAQAGGLKGLKFYGMVGLPTETDADVAATVDLFCQLKKTAPRLRLTLGCSTFVPKAHTPFQWWGVQPVAEKRLKFLKKELAKLGIEFRPESYNDSLIQALISRGDRRLAPLLEQVRHYGTSLGSYRRAFKERQGQLPDFEAYVNANWPEETVLPWQHLQSGLPTKTLENHLKRAIALEHHHHHH,not soluble
16,MGHHHHHHSHMTGRLDELEKAITTQNCNTKCVTIPSTCSEIWGLSTPNTIDQWDTTGLYSFSEQTRSLDGRLQVSHRKGLPHVIYCRLWRWPDLHSHHELKAIENCEYAFNLKKDEVCVNPYHYQRVETPVLPPVLVPRHTEILTELPPLDDYTHSIPE,soluble
17,MAKYTRDDILAQAKQLAKMIAETEEVDFFKRAEEKIHQNEKVRTLINELKSLQKQAVNLQHYGKHEALKQVEAKIDAIYEELSQIPIVSEFQQSQSDVNDLLQLVASTISNTVTDEILASTGGDVLRGETGAALRYNKHGGCH,not soluble
18,AQKSVKISDDISITQLSDKVYTYVSLAEIEGWGMVPSNGMIVINNHQAALLDTPINDAQTEMLVNWVTDSLHAKVTTFIPNHWHGDCIGGLGYLQRKGVQSYANQMTIDLAKEKGLPVPEHGFTDSLTVSLDGMPLQCYYLGGGHATDNIVVWLPTENILFGGCMLKDNQATSIGNISDADVTAWPKTLDKVKAKFPSARYVVPGHGDYGGTELIEHTKQIVNQYIESTSKP,soluble
19,MAHHHHHHNQQNKKVEGGYECKYCTFQTPDLNMFTFHVDSEHPNVVLNSSYVCVECNFLTKRYDALSEHNLKYHPGEENFKLTMVKRNNQTIFEQTINDLTF,soluble
20,MMKPSVSAAILAAGTSTRMNEMKQLAKIQGTYMLKYVIDQVSNHPFQHIFVIVGHQADIVMKMIQVEDKRVQWLVNDQYKQGQSTSFKLAMEQARQYGDAVMMFLADQPLIEKETVNIVLNEGITRVQEEPFIVRPMYEKKEGHPVYWGNIHALDCSAVNGDKGGKTLMEELERMLIPVHDQGVLVDVDTCEDYKKVNDLMKRKSPSTHLEHHHHHH,not soluble
